The data set has as its target PHR1-His (UniProt Q94CL7 1-409). As to the kind of experiment: EMSA; without SnRK1 (unphosphorylated); 10 mM Tris-HCl pH 8.0, 100 mM NaCl, 10% glycerol, 2 mM DTT, 0.05% NP-40; 0.5 ug protein in 30 ul, 22 C, 30 min; 4.5% acrylamide gel, 0.5x TBE. As to conditions: protein: recombinant; tags: His (pET28b(+)); chain copies: 2; label: 32P 5' end label on sense strand (T4 PNK); blunt.

Data on one molecule can be found in PMC10107491, “Phosphorylation of S11 in PHR1 negatively controls its transcriptional activity”.

PHR1-His, sequence (Q94CL7 whole entry): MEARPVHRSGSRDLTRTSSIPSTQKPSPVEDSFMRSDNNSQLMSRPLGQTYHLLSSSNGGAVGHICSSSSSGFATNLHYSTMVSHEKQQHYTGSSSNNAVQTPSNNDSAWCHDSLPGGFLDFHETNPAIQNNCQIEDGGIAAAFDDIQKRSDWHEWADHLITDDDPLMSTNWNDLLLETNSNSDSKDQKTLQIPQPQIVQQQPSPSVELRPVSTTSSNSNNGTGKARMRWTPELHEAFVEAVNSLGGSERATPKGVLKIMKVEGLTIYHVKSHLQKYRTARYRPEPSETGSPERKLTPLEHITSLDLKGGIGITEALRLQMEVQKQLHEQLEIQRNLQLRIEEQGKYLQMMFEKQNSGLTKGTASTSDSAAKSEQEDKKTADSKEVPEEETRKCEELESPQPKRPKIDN

B1: AtIPS1 P1BS probe (dsDNA)
DNA 1: CAATTTTGGTAACGGCATATTCCATCGGATGATCCAAAATTCTCAAAA
DNA 2: TTTTGAGAATTTTGGATCATCCGATGGAATATGCCGTTACCAAAATTG
On to B1, for which the binding result was “binds”.
